Twelve molecules from patent US20240132615A1 (ICHNOS SCIENCES, published 2024) can be followed below.

Assay [1] deals with T1, recombinant cynomolgus monkey CD38-ECD-C-his protein (cynomolgus monkey, UniProt Q5VAN0 45-301).
T1 construct: made in house; Q5VAN0 residues 43-301 (residue 44 deleted) with C-terminal 6-His; also called cynomolgus monkey CD38-C-His; recombinant cynomolgus monkey CD38 protein
The experiment in a line: SPR, Fab as analyte, captured cynomolgus CD38-his.

In assay [2] the target is T2, Biotinylated Human CD38 Protein, Avitag, His Tag (Acrobiosystems CD8-H82E7) (human, UniProt P28907 43-300, biotinylated).
T2 construct: bought protein; also called biotinylated recombinant human CD38 protein; human CD38-avi-his
Nature of the assay: SPR, Fab as analyte, immobilised biotinylated human CD38.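 Also: biacore T200 at 25 °C, single-cycle kinetics with Fab from 7.8 to 2000 nM, 3 min association then 5 min dissociation, fitted with a 1:1 Langmuir model.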

In assay [3] the target is T3, human CD3 on cells (HPB-ALL cells, primary human T cells) (human, UniProt P07766 23-207).
T3 construct: whole, on cells; only the epsilon chain is written
The experiment in a line: flow cytometry, human CD4+ T cells. For orientation: A flow cytometer gives signals particle by particle.

T3 sequence (P07766 23-207): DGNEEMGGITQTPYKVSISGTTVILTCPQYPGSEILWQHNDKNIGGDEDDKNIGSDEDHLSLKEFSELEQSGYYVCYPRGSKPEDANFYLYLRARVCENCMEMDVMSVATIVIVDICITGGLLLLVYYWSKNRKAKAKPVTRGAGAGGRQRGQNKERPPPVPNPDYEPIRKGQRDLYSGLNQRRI

B1: Anti-CD38-UCP03-A6 Fab (Fab, V domains shown)
VH: QVQLVQSGAEVKKPGSSVKVSCKASGGDFSLYAISWVRQAPGQGLEWMGGIIPLLGEPVYAQKFQGRVTITADESTSTAYMELSSLRSEDTAVYYCARGHRVYSSSPFDYWGQGTLVTVSS
VL: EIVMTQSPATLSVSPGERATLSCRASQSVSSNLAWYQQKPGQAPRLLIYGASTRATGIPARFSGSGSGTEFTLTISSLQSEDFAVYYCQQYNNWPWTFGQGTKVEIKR
notes: Fab
On to B1, for which the dissociation constant (Kd) turned out to be 525 nM in assay [1] and 410 nM in assay [2].

B2: Anti-CD38-UCP03-H3 Fab (Fab, V domains shown)
VH: QVQLVQSGAEVKKPGSSVKVSCKASGGVFSQFPISWVRQAPGQGLEWMGGIIAGYGATEYAQKFQGRVTITADESTSTAYMELSSLRSEDTAVYYCARVYGGIDWGQGTLVTVSS
VL: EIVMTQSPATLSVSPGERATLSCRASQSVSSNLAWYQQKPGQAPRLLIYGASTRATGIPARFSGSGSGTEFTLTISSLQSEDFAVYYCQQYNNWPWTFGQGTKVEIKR
notes: Fab
As to B2, the Kd came to 178 nM in assay [1] and 810 nM in assay [2].

B3: Anti-CD38-UCP03-H2 Fab (Fab, V domains shown)
VH: QVQLVQSGAEVKKPGSSVKVSCKASGGEFSIYVISWVRQAPGQGLEWMGRVIPSTGDTNYAQKFQGRVTITADESTSTAYMELSSLRSEDTAVYYCARGKAYYSGWLAIWGQGTLVTVSS
VL: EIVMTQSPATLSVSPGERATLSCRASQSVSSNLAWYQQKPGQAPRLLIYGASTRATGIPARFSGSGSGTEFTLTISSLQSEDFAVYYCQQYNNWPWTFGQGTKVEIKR
notes: Fab
As to B3, the values for the Kd in assay [1] and in assay [2] were 672 nM and 1850 nM, respectively.

B4: Anti-CD38-UCP03-B6 Fab (Fab, V domains shown)
VH: QVQLVQSGAEVKKPGSSVKVSCKASGGHISNSAINWVRQAPGQGLEWMGRVIPVIDDAYYAQKFQGRVTITADESTSTAYMELSSLRSEDTAVYYCARSRGYYGSFYFDIWGQGTLVTVSS
VL: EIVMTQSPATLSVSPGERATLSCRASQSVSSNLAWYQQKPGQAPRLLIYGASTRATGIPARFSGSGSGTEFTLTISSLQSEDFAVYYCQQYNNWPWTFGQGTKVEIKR
notes: Fab
Consider B4, for which the Kd in assay [1] stood at 829 nM; in assay [2], 225 nM.

B5: Anti-CD3-C1-UCP01-H9 IgG1LALA (antibody, V domains shown)
VH: QVQLVQSGAEVKKPGSSVKVSCKASGGKFSRYAISWVRQAPGQGLEWMGGISPHVGYAEYAQKFQGRVTITADESTSTAYMELSSLRSEDTAVYYCARYGYSLYMDIWGQGTLVTVSS
VL: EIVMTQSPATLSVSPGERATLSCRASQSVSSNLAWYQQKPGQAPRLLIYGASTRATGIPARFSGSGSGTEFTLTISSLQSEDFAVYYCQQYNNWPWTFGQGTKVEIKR
notes: IgG1 LALA
Take B5: the “MFI at 800 nM” value in assay [3] was found to be 133000 MFI.

B6: Anti-CD3-C1-UCP01-D4 IgG1LALA (antibody, V domains shown)
VH: QVQLVQSGAEVKKPGSSVKVSCKASGGKFSRYAISWVRQAPGQGLEWMGGINPIRGRPSYAQKFQGRVTITADESTSTAYMELSSLRSEDTAVYYCARYGYSLYMDIWGQGTLVTVSS
VL: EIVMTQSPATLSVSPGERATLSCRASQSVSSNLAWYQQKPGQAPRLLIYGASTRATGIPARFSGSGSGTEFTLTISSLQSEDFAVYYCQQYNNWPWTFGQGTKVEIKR
notes: IgG1 LALA
For the molecule B6, the “MFI at 800 nM” value in assay [3] was determined as 126000 MFI.

B7: Anti-CD3-C1-UCP01-C11 IgG1LALA (antibody, V domains shown)
VH: QVQLVQSGAEVKKPGSSVKVSCKASGGKFSRYAISWVRQAPGQGLEWMGGINPHVGAPEYAQKFQGRVTITADESTSTAYMELSSLRSEDTAVYYCARYGYSLYMDIWGQGTLVTVSS
VL: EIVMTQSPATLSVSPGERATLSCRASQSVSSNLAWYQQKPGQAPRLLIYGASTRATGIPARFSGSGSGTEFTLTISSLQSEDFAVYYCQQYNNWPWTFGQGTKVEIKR
notes: IgG1 LALA
Turning to B7, in assay [3], the “MFI at 800 nM” value is 119000 MFI.

B8: Anti-CD3-C1-UCP01-D1 IgG1LALA (antibody, V domains shown)
VH: QVQLVQSGAEVKKPGSSVKVSCKASGGKFSRYAISWVRQAPGQGLEWMGGINPLSDEAQYAQKFQGRVTITADESTSTAYMELSSLRSEDTAVYYCARYGYSLYMDIWGQGTLVTVSS
VL: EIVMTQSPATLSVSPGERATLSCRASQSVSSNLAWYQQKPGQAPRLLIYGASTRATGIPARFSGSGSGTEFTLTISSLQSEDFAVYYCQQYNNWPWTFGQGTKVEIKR
notes: IgG1 LALA
In the case of B8, the “MFI at 800 nM” value in assay [3] worked out at 52800 MFI.

B9: Anti-CD3-C1-UCP01-D6 IgG1LALA (antibody, V domains shown)
VH: QVQLVQSGAEVKKPGSSVKVSCKASGGKFSRYAISWVRQAPGQGLEWMGGITALGGYPNYAQKFQGRVTITADESTSTAYMELSSLRSEDTAVYYCARYGYSLYMDIWGQGTLVTVSS
VL: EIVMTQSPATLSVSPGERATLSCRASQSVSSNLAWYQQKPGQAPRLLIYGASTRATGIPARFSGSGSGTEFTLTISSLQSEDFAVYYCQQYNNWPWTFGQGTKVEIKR
notes: IgG1 LALA; also called anti-CD3-C1-D6; C1-D6
As for B9, the “MFI at 800 nM” value in assay [3] is 178000 MFI.

B10: Anti-CD3-C1-UCP01-B6 IgG1LALA (antibody, V domains shown)
VH: QVQLVQSGAEVKKPGSSVKVSCKASGGKFSRYAISWVRQAPGQGLEWMGGISPYQGYASYAQKFQGRVTITADESTSTAYMELSSLRSEDTAVYYCARYGYSLYMDIWGQGTLVTVSS
VL: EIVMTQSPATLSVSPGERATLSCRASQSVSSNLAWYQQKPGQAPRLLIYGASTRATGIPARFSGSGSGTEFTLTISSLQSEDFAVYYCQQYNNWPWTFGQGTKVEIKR
notes: IgG1 LALA
B10: the “MFI at 800 nM” value in assay [3] was 109000 MFI.

B11: Anti-CD3-C1-UCP01-E7 IgG1LALA (antibody, V domains shown)
VH: QVQLVQSGAEVKKPGSSVKVSCKASGGKFSRYAISWVRQAPGQGLEWMGGINPHLGEAEYAQKFQGRVTITADESTSTAYMELSSLRSEDTAVYYCARYGYSLYMDIWGQGTLVTVSS
VL: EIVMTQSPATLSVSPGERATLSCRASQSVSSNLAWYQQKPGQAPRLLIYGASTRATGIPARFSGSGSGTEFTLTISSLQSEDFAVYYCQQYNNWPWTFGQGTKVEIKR
notes: IgG1 LALA
With B11, the “MFI at 800 nM” value in assay [3] was 82800 MFI.

B12: Anti-CD38-UCP03-E3 Fab (Fab, V domains shown)
VH: QVQLVQSGAEVKKPGSSVKVSCKASGGSFSIYAISWVRQAPGQGLEWMGGIIPNSGDTDYAQKFQGRVTITADESTSTAYMELSSLRSEDTAVYYCARGPYDSYGESYFDYWGQGTLVTVSS
VL: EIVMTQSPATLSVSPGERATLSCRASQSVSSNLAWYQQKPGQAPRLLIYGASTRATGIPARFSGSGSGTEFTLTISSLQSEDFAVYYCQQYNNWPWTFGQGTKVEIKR
notes: Fab
Regarding B12, the results for the dissociation constant (Kd) in assay [1] and in assay [2] were 195 nM and 300 nM, respectively.

As a reminder, the Kd is the equilibrium constant for the complex coming apart.
